Laboratory results reported in US20260103529A1, “Amino Acid Sequences Directed Against the Melanocortin 4 Receptor and Polypeptides Comprising the Same for the Treatment of MC4R-Related Diseases and Disorders” (Confo Therapeutics N.V., priority 2022, published 2026).
Each block holds one molecule with its values, some of them ahead of it.

Molecular target: human wild type MC4R (Homo sapiens, UniProt P32245)
Experiment: cAMP signaling assay (Lance Ultra HTRF)
Format: cell-based
Set-up: double Twin Strep tag; expressed in transfected cells; host or cells: HEK293
Conditions: purified nanobodies, human MC4R-overexpressing HEK293 cells, read-out: potencies, MC4R-mediated dose-dependent cAMP accumulation
Protocol: To confirm MC4R activation, dose-dependent nanobody-induced cAMP signaling was assessed (Lance Ultra HTRF). […] Binding of pN162 to the human melanocortin receptor subtypes MC1R, MC2R, MC3R, MC4R or MC5R transiently expressed as Flag-tagged receptors in HEK293T cells was assessed by flow cytometry.

human wild type MC4R, sequence (P32245 whole entry): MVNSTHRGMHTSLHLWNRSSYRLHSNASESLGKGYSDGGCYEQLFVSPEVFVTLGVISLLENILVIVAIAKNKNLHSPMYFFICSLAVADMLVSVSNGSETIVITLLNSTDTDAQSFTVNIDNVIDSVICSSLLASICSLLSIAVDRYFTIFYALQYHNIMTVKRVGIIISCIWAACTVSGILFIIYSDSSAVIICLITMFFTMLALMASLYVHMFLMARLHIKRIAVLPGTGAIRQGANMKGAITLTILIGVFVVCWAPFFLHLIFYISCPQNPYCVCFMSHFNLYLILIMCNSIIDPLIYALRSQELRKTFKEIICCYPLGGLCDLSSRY

EC50: 0.7 nM
B1: pN152: agonistic anti-MC4R VHH, SEQ ID NO: 183 (protein)
VHH: QVQLVESGGGLVQPGGSLKLSCAASGSISSKSDWGWYRQAPGKERELVAQITSGGNLKYASAVTGRFTISRDNAKNTVNLLMSRLKPEDTAIYFCNARTWRLVRYYDYWGQGTQVTVSS
modifications: pN0152

EC50: 393 nM
B2: pN161: agonistic anti-MC4R VHH, SEQ ID NO: 314 (protein)
VHH: QVQLVESGGGLVQAGGSLRLSCAASGSISRTNGMGWYRQAPGKQRELVAAITTGGSTNYANSAKGRFTISRDNAKNTVYLQMNSLKPEDTAVYYCNARYGSSSFRWGDFEVWGQGTQVTVSS
modifications: PN0161
